Compound in series [1]: O=P(O)(O)OC[C@H]1O[C@@H](O)[C@H](O)[C@@H]1O
Description: Competitive inhibition of Mycobacterium tuberculosis H37Rv RPIB extracted from Escherichia coli BL21 assessed as Km using D-ribose-5-phosphate as substrate incubated for 10 mins by ultraviolet absorbance based spectrophotometric analysis.

Compound in series [2]: O=P(O)(O)OC[C@H]1O[C@@H](O)[C@H](O)[C@@H]1O
Description: Competitive inhibition of Mycobacterium tuberculosis RPIB assessed as Km using D-ribose-5-phosphate as substrate.

Compound in series [3]: O=P(O)(O)OC[C@H]1O[C@@H](O)[C@H](O)[C@@H]1O
Description: Competitive inhibition of Mycobacterium tuberculosis RPIB assessed as Km using D-ribose-5-phosphate as substrate by ultraviolet absorbance based spectrophotometric analysis.

Compound in series [4]: O=P(O)(O)OC[C@H]1O[C@@H](O)[C@H](O)[C@@H]1O
Description: Competitive inhibition of Mycobacterium tuberculosis RPIB assessed as Km using D-ribose-5-phosphate as substrate by spectrophotometric analysis.

Compound in series [5]: O=P(O)(O)OC[C@H]1O[C@@H](O)[C@H](O)[C@@H]1O
The series can be described thus: Competitive inhibition of Escherichia coli RPIB assessed as Km using D-ribose-5-phosphate as substrate.

Compound in series [6]: O=P(O)(O)OC[C@H]1O[C@@H](O)[C@H](O)[C@@H]1O
The series can be described thus: Competitive inhibition of Escherichia coli RPIB assessed as Km using D-ribose-5-phosphate as substrate by ultraviolet absorbance based spectrophotometric analysis.

Compound in series [7]: O=P(O)(O)OC[C@H]1O[C@@H](O)[C@H](O)[C@@H]1O
The series can be described thus: Competitive inhibition of Escherichia coli RPIB assessed as Km using D-ribose-5-phosphate as substrate by spectrophotometric analysis.

Compound in series [8]: O=P(O)(O)OC[C@H]1O[C@@H](O)[C@H](O)[C@@H]1O
The series can be described thus: Competitive inhibition of Spinacia oleracea RPIA assessed as Km using D-ribose-5-phosphate as substrate by Michaelis-Menten kinetics analysis.

Compound in series [9]: O=P(O)(O)OC[C@H]1O[C@@H](O)[C@H](O)[C@@H]1O
The series can be described thus: Competitive inhibition of Spinacia oleracea RPIA assessed as Km using D-ribose-5-phosphate as substrate by ultraviolet absorbance based spectrophotometric analysis.

Compound in series [10]: O=P(O)(O)OC[C@H]1O[C@@H](O)[C@H](O)[C@@H]1O
Description: Competitive inhibition of Spinacia oleracea RPIA assessed as Km using D-ribose-5-phosphate as substrate.

These results are taken from ChEMBL document CHEMBL5579804, “Synthesis and kinetic evaluation of phosphomimetic inhibitors targeting type B ribose-5-phosphate isomerase from Mycobacterium tuberculosis” (Bioorg Med Chem Lett, 2024).

B1: Ribose-5-phosphate isomerase B (Mycobacterium tuberculosis), P9WKD7 (protein)
chain: MSGMRVYLGADHAGYELKQRIIEHLKQTGHEPIDCGALRYDADDDYPAFCIAAATRTVADPGSLGIVLGGSGNGEQIAANKVPGARCALAWSVQTAALAREHNNAQLIGIGGRMHTVAEALAIVDAFVTTPWSKAQRHQRRIDILAEYERTHEAPPVPGAPA
Consider B1, for which the Km is 3700 µM in series [1], 2100 µM in series [2], 1000 µM in series [3] and 3100 µM in [4].

B2: Ribose-5-phosphate isomerase B (Escherichia coli (strain K12)), P37351 (protein)
chain: MKKIAFGCDHVGFILKHEIVAHLVERGVEVIDKGTWSSERTDYPHYASQVALAVAGGEVDGGILICGTGVGISIAANKFAGIRAVVCSEPYSAQLSRQHNDTNVLAFGSRVVGLELAKMIVDAWLGAQYEGGRHQQRVEAITAIEQRRN
As for B2, the figures for the Km in series [5], in series [6] and in series [7] were 1600 µM, 1100 µM and 1500 µM, respectively.

B3: ribose-5-phosphate isomerase (Spinacia oleracea), Q8RU73 (protein)
chain: MASAAFSLLPSTSSTTFNRHATTKLLNLKFLHNHRNKPFFTTTIKSLSSPSPTPVLTQDDLKKLAAEKAVDSVKSGMVLGLGTGSTAAFAVSRIGELLSAGKLTNIVGIPTSKRTAEQAASLGIPLSVLDDHPRIDLAIDGADEVDPDLNLVKGRGGALLREKMVEAASDKFIVVVDDTKLVDGLGGSRLAMPVEVVQFCWKYNLKRLQEIFKELGCEAKLRMEGDSSPYVTDNSNYIVDLYFPTSIKDAEAAGREISALEGVVEHGLFLGMASEVIIAGKTGVSVKTK
Turning to B3, the Km in [8] stood at 7500 µM; in [9] it was 3300 µM; in [10] it was 3000 µM.
